Paper PMC8042443

Molecular target: GST fusion protein of the α1-syntrophin PDZ domain (UniProt Q61234)
Assay: pull-down; GST fusion proteins immobilised on beads, incubated 1 to 2 h at 4 °C with lysates of MEFs expressing HA-tagged DGKζ constructs; washed at least four times with ice-cold lysis buffer; bound DGKζ detected by anti-HA immunoblot; in some panels cells were treated with vehicle, 100 nM PMA, or 1 μM Gö6976 before PMA

Chain of GST fusion protein of the α1-syntrophin PDZ domain (Q61234 81-164): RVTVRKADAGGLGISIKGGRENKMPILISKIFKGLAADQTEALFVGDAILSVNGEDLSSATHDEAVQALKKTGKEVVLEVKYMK
Chain of HA-tagged DGKζ^M1 (all four serine residues in the MARCKS domain changed to aspartate) (Q13574 whole entry, the tested form may be a part): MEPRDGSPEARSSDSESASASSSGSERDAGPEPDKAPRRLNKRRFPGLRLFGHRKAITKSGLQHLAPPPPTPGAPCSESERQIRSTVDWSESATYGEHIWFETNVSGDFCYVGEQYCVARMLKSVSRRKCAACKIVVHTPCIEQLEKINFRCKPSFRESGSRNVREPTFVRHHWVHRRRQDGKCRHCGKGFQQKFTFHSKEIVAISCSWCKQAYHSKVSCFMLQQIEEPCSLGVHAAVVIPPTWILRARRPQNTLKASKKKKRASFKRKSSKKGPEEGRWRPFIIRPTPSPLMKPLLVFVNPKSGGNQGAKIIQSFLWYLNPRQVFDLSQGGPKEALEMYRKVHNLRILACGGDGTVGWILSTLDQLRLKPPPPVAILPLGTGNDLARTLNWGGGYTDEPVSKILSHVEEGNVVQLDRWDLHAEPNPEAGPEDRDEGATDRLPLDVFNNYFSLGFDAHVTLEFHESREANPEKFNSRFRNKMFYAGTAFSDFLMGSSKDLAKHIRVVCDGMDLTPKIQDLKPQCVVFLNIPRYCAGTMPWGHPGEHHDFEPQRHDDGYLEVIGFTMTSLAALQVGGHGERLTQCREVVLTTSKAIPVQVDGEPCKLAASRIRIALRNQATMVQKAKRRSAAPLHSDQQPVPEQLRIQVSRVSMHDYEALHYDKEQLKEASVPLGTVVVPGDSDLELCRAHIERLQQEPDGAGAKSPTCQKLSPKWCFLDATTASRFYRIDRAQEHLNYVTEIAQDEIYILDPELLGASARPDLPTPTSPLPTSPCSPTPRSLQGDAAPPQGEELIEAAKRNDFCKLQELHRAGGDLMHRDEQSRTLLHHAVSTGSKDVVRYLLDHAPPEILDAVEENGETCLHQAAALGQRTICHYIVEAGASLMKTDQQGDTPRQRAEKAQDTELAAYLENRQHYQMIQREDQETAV

- fold binding against DGKζ^WT: 2.5 fold
Substance: HA-tagged DGKζ^M1 (all four serine residues in the MARCKS domain changed to aspartate) (from UniProt Q13574 1-928) (enzyme)
